± gives the standard deviation of the averaged measurements.
Assay: total protein half-life in vivo (active degradation + dilution); higher = more stable protein
[1] = E. coli NCM3722 delta-clpP delta-lon delta-hslV, growth: N-lim chemostat, doubling time 6 h
[2] = E. coli NCM3722 delta-clpP, growth: N-lim chemostat, doubling time 6 h
[3] = E. coli NCM3722 delta-hslV, growth: N-lim chemostat, doubling time 6 h
[4] = E. coli NCM3722 delta-lon, growth: N-lim chemostat, doubling time 6 h
[5] = E. coli NCM3722 delta-smpB, growth: N-lim chemostat, doubling time 6 h
[6] = wild type E. coli NCM3722, growth: C-lim chemostat, doubling time 3 h
[7] = wild type E. coli NCM3722, growth: C-lim chemostat, doubling time 6 h
[8] = wild type E. coli NCM3722, growth: C-lim chemostat, doubling time 12 h
[9] = wild type E. coli NCM3722, growth: N-lim chemostat, doubling time 6 h
[10] = wild type E. coli NCM3722, growth: N-lim chemostat, doubling time 12 h
[11] = wild type E. coli NCM3722, growth: P-lim chemostat, doubling time 6 h
[12] = wild type E. coli NCM3722, growth: P-lim chemostat, doubling time 12 h

Row | Sequence | total protein half-life in vivo [1] [h] | total protein half-life in vivo [2] [h] | total protein half-life in vivo [3] [h] | total protein half-life in vivo [4] [h] | total protein half-life in vivo [5] [h] | total protein half-life in vivo [6] [h] | total protein half-life in vivo [7] [h] | total protein half-life in vivo [8] [h] | total protein half-life in vivo [9] [h] | total protein half-life in vivo [10] [h] | total protein half-life in vivo [11] [h] | total protein half-life in vivo [12] [h]
1 | MQYNPLGKTDLRVSRLCLGCMTFGEPDRGNHAWTLPEESSRPIIKRALEGGINFFDTANSYSDGSSEEIVGRALRDFARREDVVVATKVFHRVGDLPEGLSRAQILRSIDDSLRRLGMDYVDILQIHRWDYNTPIEETLEALNDVVKAGKARYIGASSMHASQFAQALELQKQHGWAQFVSMQDHYNLIYREEEREMLPLCYQEGVAVIPWSPLARGRLTRPWGETTARLVSDEVGKNLYKESDENDAQIAERLTGVSEELGATRAQVALAWLLSKPGIAAPIIGTSREEQLDELLNAVDITLKPEQIAELETPYKPHPVVGFK | 4.533 ± 0.045 | 4.47 ± 0.65 | 4.55 ± 0.91 | 5 ± 0.2 | 3.79 ± 0.081 | 2.81 ± 0.13 | 5.04 ± 0.076 | 9.04 ± 0.38 | 4.21 ± 0.2 | 6.51 ± 0.4 | 4.28 ± 0.23 | 8.83 ± 0.12
2 | MREAFICDGIRTPIGRYGGALSSVRADDLAAIPLRELLVRNPRLDAECIDDVILGCANQAGEDNRNVARMATLLAGLPQSVSGTTINRLCGSGLDALGFAARAIKAGDGDLLIAGGVESMSRAPFVMGKAASAFSRQAEMFDTTIGWRFVNPLMAQQFGTDSMPETAENVAELLKISREDQDSFALRSQQRTAKAQSSGILAEEIVPVVLKNKKGVVTEIQHDEHLRPETTLEQLRGLKAPFRANGVITAGNASGVNDGAAALIIASEQMAAAQGLTPRARIVAMATAGVEPRLMGLGPVPATRRVLERAGLSIHDMDVIELNEAFAAQALGVLRELGLPDDAPHVNPNGGAIALGHPLGMSGARLALAASHELHRRNGRYALCTMCIGVGQGIAMILERV [P0C7L2] | 3.42 | – | – | 2.17 | – | 2.77 ± 0.17 | 3.37 ± 0.079 | 4.76 ± 0.58 | – | – | 4.99 ± 1.1 | 8.63 ± 0.14
3 | MRFAIVVTGPAYGTQQASSAFQFAQALIADGHELSSVFFYREGVYNANQLTSPASDEFDLVRAWQQLNAQHGVALNICVAAALRRGVVDETEAGRLGLASSNLQQGFTLSGLGALAEASLTCDRVVQF | 5.11 | 4.58 | – | – | 3.44 | – | – | – | 4.52 | – | 6.11 | > 16
4 | MRFIIRTVMLIALVWIGLLLSGYGVLIGSKENAAGLGLQCTYLTARGTSTVQYLHTKSGFLGITDCPLLRKSNIVVDNG [Q2MB16] | 7.32 ± 0.77 | 6.25 | – | – | 6.03 ± 1.1 | – | – | 14 ± 1.4 | 5.45 | – | – | 14 ± 2.2
5 | MRFYRPLGRISALTFDLDDTLYDNRPVILRTEREALTFVQNYHPALRSFQNEDLQRLRQAVREAEPEIYHDVTRWRFRSIEQAMLDAGLSAEEASAGAHAAMINFAKWRSRIDVPQQTHDTLKQLAKKWPLVAITNGNAQPELFGLGDYFEFVLRAGPHGRSKPFSDMYFLAAEKLNVPIGEILHVGDDLTTDVGGAIRSGMQACWIRPENGDLMQTWDSRLLPHLEISRLASLTSLI [P0ADP0] | 5.24 ± 0.7 | 4.56 ± 0.69 | 3.79 ± 0.05 | 4.87 ± 0.35 | 3.76 ± 0.16 | – | 5.75 ± 0.33 | 10.1 ± 1.4 | 3.83 ± 0.34 | 6.7 | 5.87 ± 0.57 | 11.6 ± 0.078
6 | MRGEFYQQLTNDLETARAEGLFKEERIITSAQQADITVADGSHVINFCANNYLGLANHPDLIAAAKAGMDSHGFGMASVRFICGTQDSHKELEQKLAAFLGMEDAILYSSCFDANGGLFETLLGAEDAIISDALNHASIIDGVRLCKAKRYRYANNDMQELEARLKEAREAGARHVLIATDGVFSMDGVIANLKGVCDLADKYDALVMVDDSHAVGFVGENGRGSHEYCDVMGRVDIITGTLGKALGGASGGYTAARKEVVEWLRQRSRPYLFSNSLAPAIVAASIKVLEMVEAGSELRDRLWANARQFREQMSAAGFTLAGADHAIIPVMLGDAVVAQKFARELQKEGIYVTGFFYPVVPKGQARIRTQMSAAHTPEQITRAVEAFTRIGKQLGVIA [P0AB77] | 5.66 ± 1.2 | 4.59 ± 0.16 | 4.78 ± 0.57 | 4.56 ± 0.44 | 4.39 ± 0.082 | 3.46 ± 0.59 | 5.66 ± 0.2 | – | 4.55 ± 0.25 | 6.84 ± 0.5 | 6.03 ± 0.29 | 11.11 ± 0.03
7 | MRHIFQRLLPRRLWLAGLPCLALLGCVQNHNKPAIDTPAEEKIPVYQLADYLSTECSDIWALQGKSTETNPLYWLRAMDCADRLMPAQSRQQARQYDDGSWQNTFKQGILLADAKITPYERRQLVARIEALSTEIPAQVRPLYQLWRDGQALQLQLAEERQRYSKLQQSSDSELDTLRQQHHVLQQQLELTTRKLENLTDIERQLSTRKPAGNFSPDTPHESEKPAPSTHEVTPDEP [P0AD44] | 6.11 ± 0.099 | 6.44 ± 0.17 | 6.18 ± 0.37 | 6.9 ± 0.22 | 6.12 ± 0.2 | 3.34 ± 0.092 | 6.14 ± 0.27 | 13.1 ± 0.57 | 6.28 ± 1 | 14 ± 1.2 | – | 12.2 ± 3.1
